Results: patent US7166764B2, “Noc2 knockout mouse” (JCR Pharmaceuticals Co., Ltd., priority 2004, dated 2007)
Substitutions are numbered along the chain they refer to.

Legend:
pancreatic acinar cells = test: Amylase secretion from isolated pancreatic acinar cells; assay type: cell-based, mouse; conditions: 30 pM CCK or 1 μM carbachol, n=12, means±s.e.m.
Protocol: Pancreatic acini were prepared by collagenase digestion method. Amylase secretion experiments were performed according to Ohnishi et al. (28) with slight modifications. Briefly, isolated acini were suspended in an incubation buffer [consisting of 10 mM HEPES (pH 7.4), 127 mM NaCl, 4.7 mM KCl, 0.6 mM MgCl2, 1.3 mM CaCl2, 0.6 mM Na2HPO4, 2.0 mg/ml glucose, Eagle's MEM amino acids supplement, 2 mM L-glutamine, 1% BSA, 0.01% soybean trypsin inhibiter] as previously described (28) and preincubated at 37° C. for 30 minutes. After preincubation, the acini were centrifuged, resuspended in fresh incubation buffer, and incubated at 37° C. in the presence or absence of 30 pM CCK or 1 μM carbachol. Amylase released into the supernatant during incubation was quantified using Amylase B-test WAKO (WAKO PURE CHEMICAL INDUSTRIES). Amylase secretion was normalized as the amount released into the medium relative to the total amylase content in the pancreatic acinar cells (expressed as % amylase release).

Rab3 isoforms = test: In vitro binding assay (cosedimentation, GST-Noc2 on glutathione beads); conditions: lysates of COS-1 cells transfected with FLAG-tagged Rab3 isoforms; GDP-βS or GTP-γS
Protocol: Pancreatic islets were isolated by collagenase digestion method in a conventional manner (27). The pancreatic islets were cultured for 48 hours in RPMI1640 medium in the presence or absence of PTX (30 ng/ml). Batch incubation was performed as previously described (27). Insulin released into the medium was measured by radioimmunoassay (EIKEN CHEMICAL). Recombinant adenoviruses carrying either LacZ, Noc2 wt (wild-type), or Noc2AAA (mutant) cDNA were generated according to the manufacturer's instructions (STRATAGENE). For preparation of Noc2AAA, Trp-Phe-Tyr (residues 154–156) were replaced with three alanine residues as previously described (24). […] Lysate from COS-1 cells transfected with a Flag-tagged Rab3 isoforms was evaluated for binding to the GST-Noc2 wild-type (Noc2 wt) or the GST-Noc2 mutant (Noc2AAA) in the presence of GTP-γS.
Wild type Noc2 and mutant Noc2 (Noc2AAA), both full-length, were expressed as GST-fusion proteins and purified according to the manufacturer's instructions (AMERSHAM). […] Briefly, lysates from COS-1 cells transfected with FLAG-tagged Rab3 isoforms and Rab5 were assessed for binding to GST-Noc2 immobilized on glutathione beads in the presence of GDP-βS or GTP-γS. Rab3 isoforms and Rab5 and GST-Noc2 were detected by immunoblotting with anti-Flag antibody or immunoglobulin G-purified antibody against rat Noc2.

Rab5A = target: T1, Rab5A (Homo sapiens, UniProt P20339); test: as above; conditions: lysates of COS-1 cells transfected with FLAG-tagged Rab5; GDP-βS or GTP-γS
T1 construct: Full-length Rab3A, B, C and D and Rab5 cDNAs were subcloned into pFLAG-CMV-2 (SIGMA); expressed in transfected cells; host or cells: COS-1 cells (lysate)
T1 sequence (P20339 1-215): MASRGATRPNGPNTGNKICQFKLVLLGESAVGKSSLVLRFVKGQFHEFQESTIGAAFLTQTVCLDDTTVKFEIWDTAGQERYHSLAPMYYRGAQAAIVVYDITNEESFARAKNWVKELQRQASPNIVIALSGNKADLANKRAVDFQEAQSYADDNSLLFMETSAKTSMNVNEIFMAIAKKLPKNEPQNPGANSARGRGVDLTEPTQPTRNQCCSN
Protocol: Wild type Noc2 and mutant Noc2 (Noc2AAA), both full-length, were expressed as GST-fusion proteins and purified according to the manufacturer's instructions (AMERSHAM). Full-length Rab3A, B, C and D and Rab5 cDNAs were subcloned into pFLAG-CMV-2 (SIGMA). For cosedimentation assays, COS-1 cells were transfected with each of the plasmids using LipofectAMINE (INVITROGEN). Following the transfection, the cells were sonicated in a buffer [20 mM HEPES, pH 7.4, 200 mM NaCl, 1 mM dithiothreitol, 5 mM MgCl2, 1 mM ATP and 0.26% (v/v) CHAPS]. In vitro binding assay was performed as previously described (15). Briefly, lysates from COS-1 cells transfected with FLAG-tagged Rab3 isoforms and Rab5 were assessed for binding to GST-Noc2 immobilized on glutathione beads in the presence of GDP-βS or GTP-γS. Rab3 isoforms and Rab5 and GST-Noc2 were detected by immunoblotting with anti-Flag antibody or immunoglobulin G-purified antibody against rat Noc2.

[1] = pancreatic acini of Noc2−/− mice, basal level 4.9±0.5%
[2] = pancreatic acini of wild-type mice, basal level 5.6±0.9%

## C[N+](C)(C)CCOC(N)=O [carbachol, reference compound]
Pancreatic acinar cells; [1]
  % amylase released of total amylase content: 6.2±0.5%
Pancreatic acinar cells; [2]
  % amylase released of total amylase content: 15.6±0.8%

B1: cholecystokinin (peptide, UniProt P06307 21-115, looked up)
Cholecystokinin: QPVPPADPAGSGLQRAEEAPRRQLRVSQRTDGESRAHLGALLARYIQQARKAPSGRMSIVKNLQNLDPSHRISDRDYMGWMDFGRRSAEEYEYPS
modifications: Cholecystokinin
Pancreatic acinar cells; [1]
  % amylase released of total amylase content: 5.8±0.5%
Pancreatic acinar cells; [2]
  % amylase released of total amylase content: 13.0±0.7%

B2: Noc2: full-length wild type Noc2 expressed as GST-fusion protein (protein)
chain: MADTIFSSGNDQWVCPNDRQLALRAKLQTGWSVHTYQTEKQRRSQCLSPGELEIILQVIQRAERLDILEQQRIGRLVERLETMQRNVMGNGLSQCLLCGEVLGFLGSSSVFCKDCRKKVCTKCGIEASPGQKRPLWLCKICSEQREVWKRSGAWFYKGLPKYILPLKTPGRADDPHFRPLPVEPTETQPPSAETSRVYTWARGRVVSSDSDSDSDLSSSSLEDRPLPSGVKGTKGDKPRGDSGASMESPRLGPARPPSHLSGSQSSLGSEAGTGATEPQGGTPAQPEPRVPGKRHTWATPRY
modifications: left off: a dimerising Fc or GST
notes: full-length wild type Noc2 expressed as GST-fusion protein
Rab3 isoforms
  binding to Rab3 isoforms (Rab3A–D): binds to all of the isoforms of Rab3 in a GTP-dependent manner
Rab5A
  binding to Rab5A: not to Rab5A

B3: Noc2AAA: mutant Noc2, Trp-Phe-Tyr (residues 154–156) replaced with three alanine residues, GST-fusion protein (protein)
chain: B2 chain with W154A, F155A, Y156A
Rab3 isoforms
  binding to Rab3 isoforms (Rab3A–D): does not bind any isoform of Rab3
